What was measured:
[1] = biological target: Myostatin (UniProt O14793); assay: SPR (Biacore T100): Fc fusion captured by anti-human antibody on a CM4 chip, myostatin injected as analyte, Langmuir 1:1 model
[2] = biological target: Myostatin (UniProt O14793); assay: SPR (Biacore T100), myostatin injected, Langmuir 1:1 model
[3] = biological target: Myostatin (UniProt O14793); assay: cell-based or functional assay

Sequence of Activin Receptor 2B-FC (Fc fusion) (Q13705 19-137): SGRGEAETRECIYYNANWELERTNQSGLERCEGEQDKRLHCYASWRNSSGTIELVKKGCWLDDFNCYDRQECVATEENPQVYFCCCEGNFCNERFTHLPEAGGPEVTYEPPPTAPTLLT
Sequence of Myostatin (O14793 267-375 limits assumed): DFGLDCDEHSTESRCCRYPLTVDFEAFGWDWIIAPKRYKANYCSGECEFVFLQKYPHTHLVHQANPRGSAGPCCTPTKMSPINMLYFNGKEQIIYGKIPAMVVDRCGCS

Substance: Activin Receptor 2B-FC (Fc fusion)
- koff [1]: 0.00098 s⁻¹
- kon [1]: 390000 M⁻¹ s⁻¹
- Kd [2]: 2.5 nM

Substance: hNOPE (1-620) ECD-FC (Fc fusion)
- IC50 of inhibition of myostatin dependent SMAD2/3 activation (luciferase reporter, HEK293, 0.1 nM myostatin) [3]: 0.17 nM

Reference: patent US20190125833A1
